# Measurements taken from patent US12473352 (SUN YAT SEN UNIVERSITY, dated 2025).
# Where a chain is given by its changes, count along the chain named.
# T1: human IFP35 protein (human, UniProt P80217 1-286, limits assumed)
# T1 construct: also called interferon-induced protein 35; IFI35
# T1 chain: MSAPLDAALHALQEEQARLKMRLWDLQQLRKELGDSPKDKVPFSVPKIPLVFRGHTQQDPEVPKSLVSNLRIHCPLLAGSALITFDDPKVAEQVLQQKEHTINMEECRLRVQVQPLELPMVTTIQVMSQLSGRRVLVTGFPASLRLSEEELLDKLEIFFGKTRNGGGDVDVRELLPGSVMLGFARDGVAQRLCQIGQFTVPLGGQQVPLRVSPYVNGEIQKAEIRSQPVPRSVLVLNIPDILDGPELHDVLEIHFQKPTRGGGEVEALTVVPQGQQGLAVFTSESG
# B1: IFP35 NID (other)
# chain: IQVMSQLSGRRVLVTGFPASLRLSEEELLDKLEIFFGKTRNGGGDVDVRELLPGSVMLGFARDGVAQRLCQIGQFTVPLGGQQVPLRVSPYVNGEIQ
# notes: also called NID domain of IFP35 (a fragment consisting of amino acids at positions 124-220); antigen IFP35 NID
# B2: AE001-8 (antibody, human IgG1, V domains shown)
# VH: QVQLVQSGAEVKKPGASVKVSCKASGYTFTNYGMNWVRQAPGQGLEWMGWINTYTGEPTVAQKFQGRFTFTLDTSTSTAYLELSSLRNEDTAVYFCARYGYSWAMDYWGQGTSVTVSS
# VL: DIQMTQSPSSLSASVGDRVTITCQASSSVSYMHWYQQKPGKAPKRLIYDTSKLASGVPSRFSGSGSGTDYTLTISSLQPEDIATYYCQQWSPLPPITFGAGTKLEIK
# notes: Human IgG1; CDR mutant of AE001-H3+L3; also called AE001-6Hc + 8Lc; AE001-6HC + 8LC
# B3: 35NIDmAb (antibody, V domains shown)
# VH: VQLVESGPELKKPGETVKISCKASGYTFTNYGMNWVKQAPGKGLKWMGWINTYTGEPTFADDFKGRFAFSLETSASTAYLQINNLKNEDTATYFCARYGYSWAMDYWGQGTSVTVSS
# VL: DIVMTQSPAIMSASPGEKVTMTCSASSSVSYMHWYQQKSGTSPKRWIYDTSKLASGVPARFSGSGSGTSYSLTISSMEAEDAATYYCQQWSSNPPITFGAGTKLEIK
# notes: Mouse monoclonal antibody from hybridoma ascites; also called AE001-VH+VL; AE001-VH+VL (35NIDmAb)
# B4: AE001-7 (antibody, human IgG1, V domains shown)
# VH: B2 VH
# VL: B2 VL with P92S, L93N, P94S, P95W, I96S
# notes: Human IgG1; CDR mutant of AE001-H3+L3; also called AE001-6Hc + 7Lc; AE001-6HC + 7LC
# B5: AE001-9 (antibody, human IgG1, V domains shown)
# VH: B2 VH
# VL: B2 VL with L93R
# notes: Human IgG1; CDR mutant of AE001-H3+L3; also called AE001-6Hc + 9Lc; AE001-6HC + 9LC
# B6: AE001-6 (antibody, human IgG1, V domains shown)
# VH: B2 VH
# VL: B2 VL with L93Y
# notes: Human IgG1; CDR mutant of AE001-H3+L3; also called AE001-6Hc + Lc; AE001-6HC + LC
# B7: AE001-H3+L3 (antibody, V domains shown)
# VH: B2 VH
# VL: B2 VL with P92S, L93N
# notes: The same doubt about the 'constant region' label applies as for AE001-H1+L1; also called AE001H3 + AE001L3; humanized antibody
# B8: AE001-H1+L1 (antibody, V domains shown)
# VH: B2 VH with Q6E, V20I, R38K, E46K, V60F, K63D, T76A, E82Q, L83I
# VL: B2 VL with L11M, I21M, A42S, L46W, L77M, P92S, L93N
# notes: also called AE001H1 + AE001L1; humanized antibody
# B9: AE001-H2+L2 (antibody, V domains shown)
# VH: B2 VH with V20I, V60F, L83I
# VL: B2 VL with I21M, L46W, L77M, P92S, L93N
# notes: Humanized form of 35NIDmAb with the same CDRs; The same doubt about the 'constant region' label applies as for AE001-H1+L1; also called AE001H2 + AE001L2; humanized antibody
# Target: the molecule itself
# Test: crystal structure of IFP35 NID alone
row,Binder,binding result
1,B1,binds

# Target: T1, human IFP35 protein
# Test: affinity kinetics (fortebio); upper end given to the clone said to show the best improvement
row,fold increase in affinity against AE001-H3+L3 [fold],Binder
1,2.5 to 4.6,B2

# Target: B1
# Test: method not stated
row,Kd [nM],Binder
1,28,B3

# Target: T1, human IFP35 protein
# Test: ELISA (OD450) on antigen IFP35
row,EC50 (read off the curve) [µg/mL],Binder
1,~0.2,B4
2,~0.2,B5
3,~0.1,B6
4,~0.2,B2

# Target: T1, human IFP35 protein
# Test: affinity kinetics (fortebio), antibody loaded
Kd [nM],koff [s⁻¹],kon [M⁻¹ s⁻¹],Binder
13.9,0.00201,145000,B7
3.46,0.000524,151000,B4
3.04,0.000454,149000,B5
3.35,0.000508,152000,B6
2.99,0.00044,147000,B2

# Target: T1, human IFP35 protein
# Test: ELISA (OD450) on human IFP35 protein
row,EC50 (read off the curve) [µg/mL],Binder
1,~0.06,B3
2,~0.2,B7
3,~0.05,B8
4,~0.08,B9
